From publication PMC8795569

Biological target: HA-APP (full-length, APP695 spliced isoform) (UniProt P05067)
Assay: ELISA

Kd: 0.0413 µM
Substance: MDGA1 MAM-Fc (recombinant MDGA1 MAM domain fused to Fc) (from UniProt Q8NFP4 751-918) (Fc fusion)
